Experimental findings from patent publication US20030166868A1 (Genentech, published 2003) are described below.

The target in assay [1] is T1, FcγRI α subunit-GST fusion (UniProt P12314 16-292).
T1 construct: ECD-6His-GST fusion expressed in 293 cells; not shown: glutathione S transferase (GST)
Put plainly: ELISA, monomeric IgG at 10 ug/ml on plate-coated FcγRI α subunit-GST fusion. For orientation: An ELISA detects its analyte on a solid surface through an enzyme-linked reagent.

For assay [2], the target named is T2, FcγRIIb α subunit ECD-6His-GST fusion protein (UniProt P31994 43-217).
T2 construct: Expressed in 293 cells; also called FcγRIlb; not shown: glutathione S transferase (GST)
T2 sequence: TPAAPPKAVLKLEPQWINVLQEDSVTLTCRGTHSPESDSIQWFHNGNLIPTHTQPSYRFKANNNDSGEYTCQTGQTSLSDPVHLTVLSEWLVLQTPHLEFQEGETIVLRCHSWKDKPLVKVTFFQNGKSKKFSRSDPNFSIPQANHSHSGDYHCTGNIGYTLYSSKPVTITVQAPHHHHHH
Kind of assay: ELISA, E27:chimeric IgE:VEGF (1:1:2) immune complex on plate-coated receptor ECD-6His-GST.

Assay [3] deals with T3, FcγRIIa α subunit ECD-6His-GST fusion protein (UniProt P12318 34-217).
T3 construct: Expressed in 293 cells; not shown: glutathione S transferase (GST)
T3 sequence: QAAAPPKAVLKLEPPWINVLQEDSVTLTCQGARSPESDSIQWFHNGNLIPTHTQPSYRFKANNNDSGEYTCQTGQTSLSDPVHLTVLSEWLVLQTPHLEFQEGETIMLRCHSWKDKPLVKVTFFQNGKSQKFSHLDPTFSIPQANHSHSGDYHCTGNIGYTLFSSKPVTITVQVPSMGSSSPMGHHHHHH
Described as above.

Assay [4] deals with T4, FcγRIIIa α subunit ECD-6His-GST fusion protein (UniProt P08637 17-208).
T4 construct: Expressed in 293 cells; also called FcγIII; FcγIIIa; not shown: glutathione S transferase (GST)
T4 sequence (P08637 other isoform, or with tags, fused parts or gaps, form in doubt): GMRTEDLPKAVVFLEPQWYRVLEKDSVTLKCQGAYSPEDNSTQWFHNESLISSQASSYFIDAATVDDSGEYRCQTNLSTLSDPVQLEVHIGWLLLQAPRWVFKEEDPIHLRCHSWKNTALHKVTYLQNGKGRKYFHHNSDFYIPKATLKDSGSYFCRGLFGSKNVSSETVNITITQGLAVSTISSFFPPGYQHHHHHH
The assay is described as above.

T1 sequence (P12314 other isoform, or with tags, fused parts or gaps, form in doubt): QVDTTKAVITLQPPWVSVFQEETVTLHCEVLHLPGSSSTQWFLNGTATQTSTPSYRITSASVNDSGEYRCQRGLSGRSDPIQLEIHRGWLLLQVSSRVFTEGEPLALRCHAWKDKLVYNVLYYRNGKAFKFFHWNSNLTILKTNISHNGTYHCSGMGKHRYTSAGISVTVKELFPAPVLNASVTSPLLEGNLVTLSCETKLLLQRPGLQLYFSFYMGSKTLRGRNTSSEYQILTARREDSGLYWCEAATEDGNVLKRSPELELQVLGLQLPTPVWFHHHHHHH

B1: E27 anti-IgE antibody, wild type (humanized IgG1) (antibody)
heavy: not shown
light: DIQLTQSPSSLSASVGDRVTITCRASKPVDGEGDSYMNWYQQKPGKAPKLLIYAASYLESGVPSRFSGSGSGTDFTLTISSLQPEDFATYYCQQSHEDPYTFGQGTKVEIKRTVAAPSVFIFPPSDEQLKSGTASVVCLLNNFYPREAKVQWKVDNALQSGNSQESVTEQDSKDSTYSLSSTLTLSKADYEKHKVYACEVTHQGLSSPVTKSFNRGEC
notes: In the FcγRIIa, FcγRIIb and FcγRIIIa ELISAs it stood as an immune complex E27:chimeric IgE:VEGF (1:1:2); in the FcγRI ELISA as monomeric IgG; also called recombinant anti-IgE E27; wt
B1: the “binding as a percentage of the wild type” value in assay [1], in assay [2], in assay [3] and in assay [4] was 100 % of wild type each time.

B2: E27 anti-IgE antibody mutant P331A (antibody)
heavy: not shown
light: B1 light
notes: also called P331A (E27 background)
In the case of B2, the “binding as a percentage of the wild type” value is 74 % of wild type in assay [1], 58 % of wild type in assay [2], 86 % of wild type in assay [3] and 73 % of wild type in assay [4].

B3: E27 anti-IgE antibody mutant E318A (antibody)
heavy: not shown
light: B1 light
notes: also called E318A (E27 background)
For the molecule B3, the “binding as a percentage of the wild type” value in assay [1] is 93 % of wild type; in assay [2], 106 % of wild type; in assay [3] it was 113 % of wild type; in assay [4], 104 % of wild type.

B4: E27 anti-IgE antibody mutant P329A (antibody)
heavy: not shown
light: B1 light
notes: also called P329A (E27 background)
Regarding B4, the “binding as a percentage of the wild type” value in assay [1] was 104 % of wild type; in assay [2], 96 % of wild type; in assay [3], 111 % of wild type; in assay [4] it was 85 % of wild type.

B5: E27 anti-IgE antibody mutant K322A (antibody)
heavy: not shown
light: B1 light
notes: also called K322A (E27 background)
Take B5: the “binding as a percentage of the wild type” value is 90 % of wild type in assay [1], 101 % of wild type in assay [2], 109 % of wild type in assay [3] and 90 % of wild type in assay [4].

B6: E27 anti-IgE antibody mutant K320A (antibody)
heavy: not shown
light: B1 light
notes: also called K320A (E27 background)
For B6, the “binding as a percentage of the wild type” value was 102 % of wild type in assay [1], 83 % of wild type in assay [2], 94 % of wild type in assay [3] and 72 % of wild type in assay [4].
